Measurements taken from US20210246200A1 (UNIVERSIT T Z RICH, published 2021).
Changes are numbered by the printed parent chain. Numbers in names are those of the source.

Legend:
Proleukin® (aldesleukin) [1] = biological target: T1, Proleukin® (aldesleukin) (human, UniProt P60568 21-153, limits assumed); assay: ELISA, coated Proleukin, HEK293F supernatant 1:2
T1 construct: Variant of human wt IL-2 with C145S (C125S on mature IL-2); also called IL-2 (Proleukin®); human IL-2 (Proleukin)
Procedure: Subsequently, hIL-2 binding efficiency of the antibodies present in the supernatants was determined using ELISA. In brief, ELISA plates (Maxisorp 96-well black microtiter plate) were coated overnight at 4° C. with 100p/well of Proleukin® (5 μg/ml PBS). ELISA plates were washed once with TBST (1×TBS/0.05% Tween 20) using a plate-washer (BioTek). […] After removal of the blocking buffer, plates were washed once with TBST using the plate washer. Supernatants were diluted 1:2 in blocking buffer and 50 μl transferred to the designated well of the ELISA plate. Each sample was present on three ELISA plates. The three plates were incubated at RT under gentle agitation. […] The other two plates were washed either every hour three times with TBST for 4 hours or washed every hour three times for 12 hours before adding the detection antibody. […] Luminescence signal was measured after 5 minutes incubation in the dark. […] All ELISA values are mean values based on two measurements.

Proleukin® (aldesleukin) [2] = biological target: T1, Proleukin® (aldesleukin); assay: ELISA, coated Proleukin, serially diluted supernatant

T1 sequence (P60568 other isoform, or with tags, fused parts or gaps limits assumed): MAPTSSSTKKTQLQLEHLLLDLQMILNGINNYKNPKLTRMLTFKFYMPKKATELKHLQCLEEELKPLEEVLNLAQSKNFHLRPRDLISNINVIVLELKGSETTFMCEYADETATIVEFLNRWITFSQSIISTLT

B1: Antibody No: 2 (antibody, human IgG1, kappa, N297A, V domains shown)
VH: EVQLVQSGAEVKKPGESLKISCKGSGYAFTNYLIEWVRQMPGKGLEWMGVINPGSGGTNYNEKFKGQVTISADKSISTAYLQWSSLKASDTAMYYCARWRGEGYYAYFDVWGQGTTVTVSS
VL: AIRLTQSPSSFSASTGDRVTITCKASQSVDYQGDSYLNWYQQKPGKAPKLLIYAASNLESGVPSRFSGSGSGTDFTLTISSLQSEDFATYYCQQSNEDPYTFGGGTKVEIKR
notes: VH WT; VK M33L; HEK293F supernatant
- ELISA value (Normal ELISA) (Proleukin® (aldesleukin) [1]): 1360 luminescence signal
- ELISA value (wash 3x every hour for 4 HRS) (Proleukin® (aldesleukin) [1]): 1230 luminescence signal
- ELISA value (wash 3x every hour for 12 HRS) (Proleukin® (aldesleukin) [1]): 518 luminescence signal
- EC50 (Proleukin® (aldesleukin) [2]): 0.79 nM

B2: Antibody No: 3 (antibody, human IgG1, kappa, N297A, V domains shown)
VH: B1 VH
VL: B1 VL with L37M, A54S
notes: VH WT; VK A50S; HEK293F supernatant
- ELISA value (Normal ELISA) (Proleukin® (aldesleukin) [1]): 4500 luminescence signal
- ELISA value (wash 3x every hour for 4 HRS) (Proleukin® (aldesleukin) [1]): 4580 luminescence signal
- ELISA value (wash 3x every hour for 12 HRS) (Proleukin® (aldesleukin) [1]): 1310 luminescence signal
- EC50 (Proleukin® (aldesleukin) [2]): 0.51 nM

B3: Antibody No: 10 (antibody, human IgG1, kappa, N297A, V domains shown)
VH: B1 VH with F108Y
VL: B1 VL with A54S
notes: VK M33L + A50S; HEK293F supernatant
- ELISA value (Normal ELISA) (Proleukin® (aldesleukin) [1]): 6050 luminescence signal
- ELISA value (wash 3x every hour for 4 HRS) (Proleukin® (aldesleukin) [1]): 4430 luminescence signal
- ELISA value (wash 3x every hour for 12 HRS) (Proleukin® (aldesleukin) [1]): 1630 luminescence signal
- EC50 (Proleukin® (aldesleukin) [2]): 0.35 nM

B4: Antibody No: 7 (antibody, human IgG1, kappa, N297A, V domains shown)
VH: B1 VH with F108Y
VL: B1 VL
notes: VK M33L; HEK293F supernatant
- ELISA value (Normal ELISA) (Proleukin® (aldesleukin) [1]): 7640 luminescence signal
- ELISA value (wash 3x every hour for 4 HRS) (Proleukin® (aldesleukin) [1]): 6360 luminescence signal
- ELISA value (wash 3x every hour for 12 HRS) (Proleukin® (aldesleukin) [1]): 1550 luminescence signal
- EC50 (Proleukin® (aldesleukin) [2]): 0.31 nM

B5: Antibody No: 14 (antibody, human IgG1, kappa, N297A, V domains shown)
VH: B1 VH with N59Y
VL: B1 VL with L37M, A54T
notes: VH N58Y; VK A50T; HEK293F supernatant
- ELISA value (Normal ELISA) (Proleukin® (aldesleukin) [1]): 7180 luminescence signal
- ELISA value (wash 3x every hour for 4 HRS) (Proleukin® (aldesleukin) [1]): 7200 luminescence signal
- ELISA value (wash 3x every hour for 12 HRS) (Proleukin® (aldesleukin) [1]): 2540 luminescence signal
- EC50 (Proleukin® (aldesleukin) [2]): 0.36 nM

B6: Antibody No: 19 (antibody, human IgG1, kappa, N297A, V domains shown)
VH: B1 VH with N59Y, F108Y
VL: B1 VL with L37M, A54T
notes: VK A50T; HEK293F supernatant
- ELISA value (Normal ELISA) (Proleukin® (aldesleukin) [1]): 5400 luminescence signal
- ELISA value (wash 3x every hour for 4 HRS) (Proleukin® (aldesleukin) [1]): 4880 luminescence signal
- ELISA value (wash 3x every hour for 12 HRS) (Proleukin® (aldesleukin) [1]): 2210 luminescence signal
- EC50 (Proleukin® (aldesleukin) [2]): 0.5 nM

B7: Antibody No: 21 (antibody, human IgG1, kappa, N297A, V domains shown)
VH: B1 VH with T30S, F108Y
VL: B1 VL with L37M
notes: VK WT; HEK293F supernatant
- ELISA value (Normal ELISA) (Proleukin® (aldesleukin) [1]): 2200 luminescence signal
- ELISA value (wash 3x every hour for 4 HRS) (Proleukin® (aldesleukin) [1]): 1840 luminescence signal
- ELISA value (wash 3x every hour for 12 HRS) (Proleukin® (aldesleukin) [1]): 892 luminescence signal
- EC50 (Proleukin® (aldesleukin) [2]): 0.65 nM

B8: Antibody No: 25 (antibody, human IgG1, kappa, N297A, V domains shown)
VH: B1 VH with T30S, F108Y
VL: B1 VL with A54S
notes: as for B3
- ELISA value (Normal ELISA) (Proleukin® (aldesleukin) [1]): 3570 luminescence signal
- ELISA value (wash 3x every hour for 4 HRS) (Proleukin® (aldesleukin) [1]): 3050 luminescence signal
- ELISA value (wash 3x every hour for 12 HRS) (Proleukin® (aldesleukin) [1]): 1080 luminescence signal
- EC50 (Proleukin® (aldesleukin) [2]): 0.42 nM

B9: Antibody No: 22 (antibody, human IgG1, kappa, N297A, V domains shown)
VH: B1 VH with T30S, F108Y
VL: B1 VL
notes: VK M33L; HEK293F supernatant
- ELISA value (Normal ELISA) (Proleukin® (aldesleukin) [1]): 3970 luminescence signal
- ELISA value (wash 3x every hour for 4 HRS) (Proleukin® (aldesleukin) [1]): 3190 luminescence signal
- ELISA value (wash 3x every hour for 12 HRS) (Proleukin® (aldesleukin) [1]): 1200 luminescence signal
- EC50 (Proleukin® (aldesleukin) [2]): 0.43 nM

B10: Antibody No: 16 (antibody, human IgG1, kappa, N297A, V domains shown)
VH: B1 VH with N59Y, F108Y
VL: B1 VL with L37M
notes: VK WT; HEK293F supernatant
- ELISA value (Normal ELISA) (Proleukin® (aldesleukin) [1]): 10200 luminescence signal
- ELISA value (wash 3x every hour for 4 HRS) (Proleukin® (aldesleukin) [1]): 9810 luminescence signal
- ELISA value (wash 3x every hour for 12 HRS) (Proleukin® (aldesleukin) [1]): 2280 luminescence signal
- EC50 (Proleukin® (aldesleukin) [2]): 0.38 nM

B11: Antibody No: 18 (antibody, human IgG1, kappa, N297A, V domains shown)
VH: B1 VH with N59Y, F108Y
VL: B1 VL with L37M, A54S
notes: VK A50S; HEK293F supernatant
- ELISA value (Normal ELISA) (Proleukin® (aldesleukin) [1]): 8060 luminescence signal
- ELISA value (wash 3x every hour for 4 HRS) (Proleukin® (aldesleukin) [1]): 7320 luminescence signal
- ELISA value (wash 3x every hour for 12 HRS) (Proleukin® (aldesleukin) [1]): 3660 luminescence signal
- EC50 (Proleukin® (aldesleukin) [2]): 0.54 nM

B12: Antibody No: 5 (antibody, human IgG1, kappa, N297A, V domains shown)
VH: B1 VH
VL: B1 VL with A54S
notes: VH WT; VK M33L + A50S; HEK293F supernatant
- ELISA value (Normal ELISA) (Proleukin® (aldesleukin) [1]): 4970 luminescence signal
- ELISA value (wash 3x every hour for 4 HRS) (Proleukin® (aldesleukin) [1]): 4490 luminescence signal
- ELISA value (wash 3x every hour for 12 HRS) (Proleukin® (aldesleukin) [1]): 873 luminescence signal
- EC50 (Proleukin® (aldesleukin) [2]): 0.5 nM

B13: Antibody No: 17 (antibody, human IgG1, kappa, N297A, V domains shown)
VH: B1 VH with N59Y, F108Y
VL: B1 VL
notes: VK M33L; HEK293F supernatant
- ELISA value (Normal ELISA) (Proleukin® (aldesleukin) [1]): 3050 luminescence signal
- ELISA value (wash 3x every hour for 4 HRS) (Proleukin® (aldesleukin) [1]): 2820 luminescence signal
- ELISA value (wash 3x every hour for 12 HRS) (Proleukin® (aldesleukin) [1]): 1140 luminescence signal
- EC50 (Proleukin® (aldesleukin) [2]): 1.39 nM

B14: Antibody No: 24 (antibody, human IgG1, kappa, N297A, V domains shown)
VH: B1 VH with T30S, F108Y
VL: B1 VL with L37M, A54T
notes: VK A50T; HEK293F supernatant
- ELISA value (Normal ELISA) (Proleukin® (aldesleukin) [1]): 2770 luminescence signal
- ELISA value (wash 3x every hour for 4 HRS) (Proleukin® (aldesleukin) [1]): 1880 luminescence signal
- ELISA value (wash 3x every hour for 12 HRS) (Proleukin® (aldesleukin) [1]): 674 luminescence signal
- EC50 (Proleukin® (aldesleukin) [2]): 0.59 nM

B15: Antibody No: 6 (antibody, human IgG1, kappa, N297A, V domains shown)
VH: B1 VH with F108Y
VL: B1 VL with L37M
notes: VK WT; HEK293F supernatant
- ELISA value (Normal ELISA) (Proleukin® (aldesleukin) [1]): 5850 luminescence signal
- ELISA value (wash 3x every hour for 4 HRS) (Proleukin® (aldesleukin) [1]): 5120 luminescence signal
- ELISA value (wash 3x every hour for 12 HRS) (Proleukin® (aldesleukin) [1]): 1730 luminescence signal
- EC50 (Proleukin® (aldesleukin) [2]): 0.34 nM

B16: Antibody No: 4 (antibody, human IgG1, kappa, N297A, V domains shown)
VH: B1 VH
VL: B1 VL with L37M, A54T
notes: VH WT; VK A50T; HEK293F supernatant
- ELISA value (Normal ELISA) (Proleukin® (aldesleukin) [1]): 2180 luminescence signal
- ELISA value (wash 3x every hour for 4 HRS) (Proleukin® (aldesleukin) [1]): 1990 luminescence signal
- ELISA value (wash 3x every hour for 12 HRS) (Proleukin® (aldesleukin) [1]): 705 luminescence signal
- EC50 (Proleukin® (aldesleukin) [2]): 0.73 nM

B17: Antibody No: 23 (antibody, human IgG1, kappa, N297A, V domains shown)
VH: B1 VH with T30S, F108Y
VL: B1 VL with L37M, A54S
notes: VK A50S; HEK293F supernatant
- ELISA value (Normal ELISA) (Proleukin® (aldesleukin) [1]): 6170 luminescence signal
- ELISA value (wash 3x every hour for 4 HRS) (Proleukin® (aldesleukin) [1]): 4640 luminescence signal
- ELISA value (wash 3x every hour for 12 HRS) (Proleukin® (aldesleukin) [1]): 1250 luminescence signal
- EC50 (Proleukin® (aldesleukin) [2]): 0.26 nM

B18: Antibody No: 9 (antibody, human IgG1, kappa, N297A, V domains shown)
VH: B1 VH with F108Y
VL: B1 VL with L37M, A54T
notes: VK A50T; HEK293F supernatant
- ELISA value (Normal ELISA) (Proleukin® (aldesleukin) [1]): 1940 luminescence signal
- ELISA value (wash 3x every hour for 4 HRS) (Proleukin® (aldesleukin) [1]): 1430 luminescence signal
- ELISA value (wash 3x every hour for 12 HRS) (Proleukin® (aldesleukin) [1]): 686 luminescence signal
- EC50 (Proleukin® (aldesleukin) [2]): 0.5 nM

B19: Antibody No: 11 (antibody, human IgG1, kappa, N297A, V domains shown)
VH: B1 VH with N59Y
VL: B1 VL with L37M
notes: VH N58Y; VK WT; HEK293F supernatant
- ELISA value (Normal ELISA) (Proleukin® (aldesleukin) [1]): 12400 luminescence signal
- ELISA value (wash 3x every hour for 4 HRS) (Proleukin® (aldesleukin) [1]): 10500 luminescence signal
- ELISA value (wash 3x every hour for 12 HRS) (Proleukin® (aldesleukin) [1]): 3500 luminescence signal
- EC50 (Proleukin® (aldesleukin) [2]): 0.34 nM
